From PMC5290283

Target: C-terminal region of APC (APC-CT), FLAG-tagged
Assay: AlphaScreen
Conditions: Donor: Gag MA-GST-biotin; acceptor: APC(CT)-FLAG; n=3; parent: est. 2.1; read off a plot

Row | Substance | response
1 | Fyn(10)WT (wild-type protein of the AlphaScreen with MA HBR mutants) 6A2T: HBR segment […] -> […] (K>A; K>A; R>A; R>A; K>A; K>A; K>T; K>T, in segment order) | 0.25 10^3 RLU
2 | Fyn(10)WT (wild-type protein of the AlphaScreen with MA HBR mutants) RKswitch: HBR segment […] -> […] (K>R; K>R; R>K; R>K; K>R; K>R; K>R; K>R, in segment order) | 2.3 10^3 RLU
